In the test the target is T1, 6×His标签 (组氨酸标签), 人工抗原6×His-OVA (also: covalently coupled to ovalbumin (OVA), chemistry and site not given here).
T1 construct: also called 多组氨酸标签; hexa组氨酸标签
T1 peptide: HHHHHH
Description: indirect phage-ELISA of phage-displayed VHH clones after three rounds of panning on 6×His-OVA. On the technique in general: ELISA stands for enzyme-linked immunosorbent assay.

Where no end group is shown, it is not given here.

B1: 针对His标签的单域重链抗体 (针对组氨酸标签的纳米抗体) (VHH)
VHH: QVQLVESGGGLVQAGGSLRLSCAVSGFTFSANAMSWVRQAPGKGPEWVSSINRGGASAEYADSVKGRFTISRDDAKNTLYLQMNSLKPEDTALYYCARGNYRGSYFNGPRTYWGRGTQVTVSP
notes: From an alpaca (Lama pacos) immune library; also called 抗His标签单域重链抗体
In the case of B1, the binding result is reported as “binds”.
